The source of these data is US20230044381A1 (GUANGDONG FEIPENG PHARMACEUTICAL, published 2023).

The target of assay [1] is T1, Human ICOS-hFc (human, UniProt Q9Y6W8 21-140).
T1 construct: Bought (ACRO); also called ICOS (ACRO)
T1 sequence (looked up): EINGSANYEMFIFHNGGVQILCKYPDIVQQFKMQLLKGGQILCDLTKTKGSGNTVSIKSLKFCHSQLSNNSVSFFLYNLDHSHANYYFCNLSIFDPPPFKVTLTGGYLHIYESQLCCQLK
The assay is described as follows: ELISA, antigen coated at 1 µg/ml. How it is done: (§1) To verify the specificity of the antibody binding to PD-1, the binding assay of anti-PD-1 mouse monoclonal antibody with four different CD28 family member proteins was conducted. […] Anti-mouse IgG coupled with peroxidase (HRP) was used as a secondary antibody (Sigma). The color was developed by TMB, and after reaction termination, the absorbance was read by a microplate reader.

Assay [2] deals with T2, Human CTLA4-hFc (human, UniProt P16410 37-162).
T2 construct: Bought (ACRO); also called CTLA-4 (ACRO)
T2 sequence (looked up): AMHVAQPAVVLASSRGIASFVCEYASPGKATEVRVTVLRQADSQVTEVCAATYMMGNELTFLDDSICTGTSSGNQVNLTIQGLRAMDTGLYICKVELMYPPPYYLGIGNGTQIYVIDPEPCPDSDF
The assay is described as follows: ELISA, antigen coated at 1 µg/ml. Here is the method: as §1

Assay [3] deals with T3, Human CD28-hFc (human, UniProt P10747 19-152).
T3 construct: Bought (ACRO); also called CD28 (ACRO)
The assay is described as follows: ELISA, antigen coated at 1 µg/ml. How it is done:
as §1

For assay [4], the target named is T4, mouse PD1 on CHO cells (CHO-mousePD1) (mouse, UniProt Q02242 25-288).
T4 construct: whole, on cells; also called CHO-mPD1
T4 sequence (looked up): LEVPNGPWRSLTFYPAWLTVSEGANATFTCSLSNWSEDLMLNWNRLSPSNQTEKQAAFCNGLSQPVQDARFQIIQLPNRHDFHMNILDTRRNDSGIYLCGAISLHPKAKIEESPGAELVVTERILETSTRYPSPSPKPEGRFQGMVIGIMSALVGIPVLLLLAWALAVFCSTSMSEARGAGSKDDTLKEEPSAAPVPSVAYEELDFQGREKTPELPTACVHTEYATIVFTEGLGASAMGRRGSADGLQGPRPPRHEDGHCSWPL
The assay is described as follows: flow cytometry on CHO-mousePD1 cells. Here is the method:
(§2) In order to evaluate binding of the anti-PD-1 mouse monoclonal antibody to CHO-hPD1, 2×10⁵ CHO-hPD1 cells and the anti-PD-1 mouse monoclonal antibody that diluted in a concentration gradient (the initial concentration was […], 3-fold serial dilution) were added to a 96-well plate. then it was incubated at 4° C. for 30 minutes. After the cells were washed once with a buffer (PBS containing 3% bovine serum albumin (BSA)), PE-labeled anti-mouse IgG(Fc) Ab (Biolegend) fluorescent secondary antibody was added, it was incubated at 4° C. for another 30 minutes. the cells were washed once with the buffer and resuspended in PBS, and then cell suspension was analyzed through flow cytometry by CytoFlex (Beckman flow cytometer), the amount of the antibody bound to the cells was measured according to the mean fluorescence intensity (MFI); the same method was used to evaluate binding of anti-PD-1 mouse monoclonal antibody to a CHO-cyno cell, and a CHO-mousePD1 (sometimes abbreviated as “CHO-mPD1” in the present invention) cell.

Assay [5] has as its target T5, human PD-1 on the cell surface (CHO-hPD1 cells; PHA-activated human PBMC) (human, UniProt Q15116 25-288).
T5 construct: whole, on cells; the assay field tells which; also called CHO-PD1
The assay is described as follows: flow cytometry on CHO-hPD1 cells. How it is done: as §2

The target in assay [6] is T6, monkey PD1 on CHO cells (CHO-cynoPD1) (monkey).
T6 construct: whole, on cells
The assay is described as follows: flow cytometry on CHO-cynoPD1 cells. Here is the method:
as §2

The target of assay [7] is T5, human PD-1 on the cell surface …. The assay is described as follows: flow cytometry on PHA-activated human PBMC. Here is the method:
After PBMC was obtained from fresh human peripheral blood by a lymphatic separation fluid gradient centrifugation method, the density was adjusted to 1×10⁶ cells/ml and then inoculated into T75. At the same time, PHA-L (Sigma) at a final concentration of 1 μg/ml was added to stimulate lymphocyte proliferation. After standing in an incubator supplied with 37° C. and 5% CO₂ for 3 days, cell suspension was taken out and centrifuged to remove the supernatant. Cells were resuspended in a buffer (PBS containing 3% BSA), and added into a 96-well U-shaped plate at a density of 2*10⁵ cells/well. And then the anti-PD1 antibody that prepared for a total of 10 concentration gradients (started from 30 μg/ml, diluted in a 3-fold gradient) was added. After incubation at 4° C. for 30 minutes, the plate was centrifuged at 300 g for 5 minutes, cells were washed once with the buffer, A PE-labeled goat anti-human IgG fluorescent antibody (Biolegend) was added, and incubated at 4° C. for 30 minutes; after incubation, the cells were washed once by centrifugation resuspended in PBS, and analyzed by a CytoFlex flow cytometer, to detect the amount of the antibody bound to PBMC.

For assay [8], the target named is T1, Human ICOS-hFc. The assay is described as follows: ELISA, antigen coated at 1 µg/ml, antibody 10 µg/ml. How it is done: as §1
The target in assay [9] is T2, Human CTLA4-hFc. The description is as above. Here is the method: as §1
The target in another assay is T7, Human PD-1-hFc (human, UniProt Q15116 25-167).
T7 construct: Bought (ACRO); also called PD-1 (ACRO)
Described as above. Here is the method:
as §1

For assay [10], the target named is T3, Human CD28-hFc. The description is as above. How it is done:
as §1

The target of assay [11] is T8, PD-1-his (ACRO) recombinant protein (UniProt Q15116 25-167).
T8 construct: Bought (ACRO); loaded on a HIS1K biosensor
The assay is described as follows: BLI (ForteBio Octet), PD-1-his loaded on HIS1K sensor, antibody in solution.

Assay [12] has as its target T5, human PD-1 on the cell surface …. The assay is described as follows: flow cytometry, blocking of PD-L1-hFc (3 µg/ml) on CHO-hPD1 cells, mode 1 (ligand added first). Here is the method: (§3) The ability of the anti-PD-1 mouse monoclonal antibody to block the binding of the ligand to CHO-hPD1 cells was analyzed by a flow cytometer.
(§4) The plate was centrifuged at 300 g for 5 minutes, cells were washed once with a buffer, a PE-labeled goat anti-human IgG fluorescent antibody (Biolegend) was added, and incubated at 4° C. for 30 minutes. After the cells were washed once by centrifugation, the cells were resuspended in PBS, and then analyzed by a Cyto Flex flow cytometer, to detect the amount of the ligand protein bound to the cells, and the IC₅₀ value of the PD-1 antibody blocking was calculated.

The target is the same in assay [13]. The assay is described as follows: flow cytometry, blocking of PD-L2-hFc (3 µg/ml) on CHO-hPD1 cells, mode 1 (ligand added first). How it is done:
as §3, §4

Assay [14] shares this target. The assay is described as follows: flow cytometry, blocking of PD-L1-hFc (3 µg/ml) on CHO-hPD1 cells, mode 2 (antibody added first). Here is the method: as §3, §4
The target is the same in assay [15]. The assay is described as follows: flow cytometry, blocking of PD-L2-hFc (3 µg/ml) on CHO-hPD1 cells, mode 2 (antibody added first). Here is the method: as §3, §4

T5 sequence (Q15116 25-288): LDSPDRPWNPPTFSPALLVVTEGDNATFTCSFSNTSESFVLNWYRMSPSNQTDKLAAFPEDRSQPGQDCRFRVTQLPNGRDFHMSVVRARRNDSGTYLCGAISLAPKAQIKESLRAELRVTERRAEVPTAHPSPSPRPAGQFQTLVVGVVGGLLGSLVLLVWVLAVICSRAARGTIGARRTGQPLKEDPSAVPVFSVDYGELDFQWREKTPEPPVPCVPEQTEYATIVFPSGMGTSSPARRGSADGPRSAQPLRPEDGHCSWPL
T7 sequence (Q15116 25-167): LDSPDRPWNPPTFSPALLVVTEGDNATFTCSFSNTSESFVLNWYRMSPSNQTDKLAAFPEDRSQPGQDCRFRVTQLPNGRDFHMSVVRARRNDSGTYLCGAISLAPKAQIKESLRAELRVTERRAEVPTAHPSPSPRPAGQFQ
T8 sequence (Q15116 25-167 limits assumed): as the sequence (Q15116 25-167) above
T3 sequence (P10747 19-152): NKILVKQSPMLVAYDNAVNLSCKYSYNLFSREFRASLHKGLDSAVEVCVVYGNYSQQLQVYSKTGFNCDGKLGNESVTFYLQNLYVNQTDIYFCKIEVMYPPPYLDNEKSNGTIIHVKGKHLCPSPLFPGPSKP

B1: PD-1-76-C2 (antibody, V domains shown)
VH: QIQLVQSGPELKKPGETVKISCKASGYTFTNYGMNWVKQAPGKGLKWMGWINTHTGEPTYADDFKGRFAFSLETSASTAYLQIKNLKNEDVATYFCTKEGEGIGFAYWGQGTLVTVSA
VL: DVLMTQTPLSLPVSLGDQASISCRSSQSIVYSNGKTYLEWYLQKPGQSPKLLIYKVSNRFSGVPDRFSGSGSGTDFTLKISRVEAEDLGVYYCFQGSHVPNTFGGGTKLEIKR
notes: Mouse monoclonal antibody from a hybridoma; also called PD-76-C2; PD-1-76-02
Regarding B1, the binding result with Human ICOS-hFc [1] is “no binding (tested: 10 µg/ml)”; with Human CTLA4-hFc [2] it was “no binding (tested: 10 µg/ml)”; with Human CD28-hFc [3], “no binding (tested: 10 µg/ml)”; in assay [4], “no binding”. For the same molecule, the concentration for a half-maximal effect (EC50) in [5] was determined as 0.583 nM; in assay [6] it was 0.576 nM; in [7] it was 0.02 nM. The OD value with Human ICOS-hFc [8] turned out to be 0.076 OD; with Human CTLA4-hFc [9] it was 0.146 OD; with Human PD-1-hFc it was 2.46 OD; in the assay with Human CD28-hFc [10], 0.0616 OD. In addition, the Kd in assay [11] was < 0.001 nM. The koff in assay [11] is < 1e-07 s⁻¹. The kon in [11] was 771000 M⁻¹ s⁻¹. The IC50 in [12] came out at 2.28 nM; in [13] it was 4.67 nM; in [14] it was 1.4 nM; in assay [15], 3.11 nM.

B2: PD-1-97-C2 (antibody, V domains shown)
VH: EVKLVESGGGLVKPGGSLKLSCAASGFTFSSYGMSWIRQTPEKRLEWVATISGGGRDSYYPDSMKGRFAISRDNAKNNLYLQMSSLRSEDTALYYCTRQLGPAWFAYWGQGTLVTVSA
VL: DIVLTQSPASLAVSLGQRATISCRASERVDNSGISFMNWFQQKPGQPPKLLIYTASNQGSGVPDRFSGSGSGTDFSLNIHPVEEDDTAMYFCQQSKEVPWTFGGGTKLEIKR
notes: Mouse monoclonal antibody from a hybridoma; also called hybridoma clone 97
Turning to B2, the binding result in the assay with Human ICOS-hFc [1] is given as “no binding (tested: 10 µg/ml)”; with Human CTLA4-hFc [2] it was “no binding (tested: 10 µg/ml)”; with Human CD28-hFc [3], “no binding (tested: 10 µg/ml)”; in assay [4], “no binding”. The EC50 was 0.745 nM in assay [5], 0.578 nM in [6] and 1.03 nM in assay [7]. The OD value in the assay with Human ICOS-hFc [8] is 0.0636 OD; in the assay with Human CTLA4-hFc [9] it was 0.129 OD; with Human PD-1-hFc, 2.37 OD; with Human CD28-hFc [10] it was 0.0606 OD. Besides, the equilibrium dissociation constant (Kd) in assay [11] was < 0.001 nM. The dissociation rate constant (koff) in assay [11] is < 1e-07 s⁻¹. Further, in assay [11], the kon worked out at 468000 M⁻¹ s⁻¹. Also, the concentration for half-maximal inhibition (IC50) in assay [12] was 2.22 nM; in assay [13] it was 7.54 nM; in assay [14], 1.62 nM; in assay [15], 3.49 nM.

B3: PD-1-112-C2 (antibody, V domains shown)
VH: QVQLQQPGAELVKPGASVKLSCKASGYTFTTYYMYWVKQRPGQGLEWIGGINPSNGGTNFNEKFKSKATLTVDKSSSTAYMQLSSLTSEDSAVYYCTRRDSNYDGGFDYWGQGTTLTVSS
VL: DIVLTQSPASLAVSLGQRATISCRASKSVSTSGYSYMHWYQQKPGQPPKLLIYLAYHLESGVPARFSGSGSGTDFTLNIHPVEEEDAATYYCQHSWELPITFGSGTKLEIKR
notes: Mouse monoclonal antibody from a hybridoma; also called hybridoma clone 112
Regarding B3, the binding result in the assay with Human ICOS-hFc [1] is reported as “no binding (tested: 10 µg/ml)”; in the assay with Human CTLA4-hFc [2], “no binding (tested: 10 µg/ml)”; with Human CD28-hFc [3], “no binding (tested: 10 µg/ml)”; in assay [4], “no binding”. The concentration giving a half-maximal response (EC50) in [5] was determined as 0.739 nM; in assay [6], 0.463 nM; in assay [7] it was 0.109 nM. Also, the OD value in the assay with Human ICOS-hFc [8] came out at 0.062 OD; in the assay with Human CTLA4-hFc [9], 0.131 OD; with Human PD-1-hFc, 2.12 OD; with Human CD28-hFc [10], 0.0625 OD. Also, the dissociation constant Kd in assay [11] was 0.0435 nM. The koff in [11] was 3.18e-05 s⁻¹. For the same molecule, the association rate constant (kon) in assay [11] came out at 732000 M⁻¹ s⁻¹. Besides, the concentration for half-maximal inhibition (IC50) in assay [12] was determined as 2.57 nM; in assay [13], 4.61 nM; in assay [14] it was 1.55 nM; in [15], 3.73 nM.
